# Measured values published in patent publication US20070053918A1, “Injectable depots consisting of liposomal aggregates for the delivery of active substances” (NOVOSOM AG, priority 2003, published 2007).
# How the values were obtained:
# [1] = Inclusion of insulin in liposomes (ELISA after liberation from liposomes); format: physicochemical; conditions: DPPC/DPPG/Chol 50:10:40 liposomes, 50 mM lipid, extrusion 200 or 400 nm
# Procedure: A mixture of 50 mole-% DPPC, 10 mole-% DPPG and 40 mole-% Chol is dissolved in chloroform at 50° C. and subsequently dried completely in vacuum in a rotary evaporator. The lipid film is added with human insulin solution (recombinant insulin; 7.5 mg/ml insulin in 10 mM glycine-HCl, 300 mM sucrose, pH 3) in an amount so as to form a 50 mM suspension. Subsequently, this suspension is hydrated in a water bath at 50° C. for 45 minutes by agitating and treated in an ultrasonic bath for another 5 minutes. Thereafter, the suspension is frozen. This is followed by 3 cycles of freezing and thawing, each thawing being followed by a 5 minute treatment in the ultrasonic bath.
# Following final thawing, the liposomes are subjected to multiple extrusions through a membrane having a pore width of 200 nm or 400 nm (Avestin LiposoFast, polycarbonate membrane with a pore width of 200 or 400 nm). Following extrusion, the resulting suspension is rebuffered by adding a solutions of HEPES, pH 7.5, and NaCl. After filtration of the liposomes through […], non-entrapped insulin is removed by gel filtration (S-200 column, Pharmacia) . Following liberation from the liposomes, the amount of entrapped insulin is determined by means of an ELISA (DRG-ELISA Kit). Inclusion rates of 50-70% insulin are found.
# [2] = Inclusion of leuprolide acetate in liposomes (ultracentrifugation, RP-HPLC); format: physicochemical; conditions: formulation L1 DPPC/DPPG/Chol liposomes, 100 mM lipid, extrusion 400 nm
# Procedure: is dissolved in chloroform at 50° C. and subsequently dried completely in vacuum in a rotary evaporator. The lipid film is added with leuprolide acetate solution (2.5 mg/ml in 10 mM HEPES, 150 mM NaCl, pH 6) in an amount so as to form a 100 mM suspension. Subsequently, this suspension is hydrated in a water bath at 50° C for 45 minutes with agitating. Thereafter, the suspension is frozen. This is followed by 3 additional cycles of freezing and thawing.
# Following final thawing, the liposomes are subjected to multiple extrusions through a membrane having a pore width of 400 nm (Avestin LiposoFast, polycarbonate membrane with a pore width of 400 nm).
# Following removal of free leuprolide acetate, the percentage of entrapped leuprolide acetate is determined by means of triple sedimentation in an ultracentrifuge at 60,000×g for 45 minutes. The leuprolide acetate is determined following extraction with CHCl3 and CH3OH, using RP-HPLC. Inclusion rates of about 15% leuprolide acetate are found.
Compound,Inclusion rate of insulin [1],Inclusion rate of leuprolide acetate [2]
insulin: recombinant human insulin entrapped in DPPC/DPPG/Chol 50:10:40 liposomes,50-70%,
CCNC(=O)[C@@H]1CCCN1C(=O)[C@H](CCCNC(=N)N)NC(=O)[C@H](CC(C)C)NC(=O)[C@@H](CC(C)C)NC(=O)[C@H](Cc1ccc(O)cc1)NC(=O)[C@H](CO)NC(=O)[C@H](Cc1c[nH]c2ccccc12)NC(=O)[C@H](Cc1c[nH]cn1)NC(=O)[C@@H]1CCC(=O)N1 [leuprolide acetate],,about 15%
